The text below walks through data of article PMC9430884.

For assay [1], the target named is CckA_(L391F) (two-hybrid fusion) (Rhodobacter sphaeroides). Particulars: scale: times higher concentration of Osp than for wild-type CckA.
Assay [2] has as its target Gal4BD-CckAΔTM (Rhodobacter sphaeroides).

In assay [1], Gal4AD-Osp (natural protein) yielded an inhibition of CckA L391F autophosphorylation with [γ-32P]ATP, purified proteins (2.5 μM His6-CckA L391F cytoplasmic domain, Osp-His6 0 to 10 μM, 30 min), against wild-type CckA of 4. The inhibition of CckA autophosphorylation with [γ-32P]ATP, purified proteins (2.5 μM His6-CckA cytoplasmic domain, Osp-His6 0 to 10 μM, 30 min) in assay [2] was found to be 50%.
